Measured values published in US20080019909A1, “Modulation of Programmed Necrosis” (priority 2003, published 2008).
Numbering of substitutions follows the chain as printed. In names and notes the source's numbering stands.

Columns and labels:
[1] = system: TNFR-2+ RIP -/- Jurkat cells (R1.1); test: TNF cytotoxic assay (cell loss by PI exclusion on FACS), TNFR-2+ RIP -/- cells; type: cell-based; conditions: for restoration of response to TNF (TNF killing) by transfected RIP constructs: TNFR-2+ RIP -/- cells reconstituted with RIP mutants, stimulated with TNF
From the text: The results are representative of three experiments.

[2] = system: RIP; test: Western blot of RIP protein expression in cells treated with GA; type: cell-based
[3] = system: TNFR-2-expressing wild-type (4E3) Jurkat cells
Description: Cells were harvested and analyzed by PI exclusion on FACS 16 hours post-stimulation and cell loss was calculated as described in Example 1 (infra).

[4] = system: caspase-8 -/- J3.2 cells; test: TNF cytotoxic assay (cell loss by PI exclusion on FACS), caspase-8 -/- J3.2 cells; conditions: for TNF-induced programmed necrosis, transfected kinase-inactive constructs: caspase-8 -/- J3.2 cells co-transfected with pEGFP-N1, 10 ng/ml rhTNFα, 16 hours, GFP positive cells
[5] = system: FADD -/- I42 cells; test: TNF cytotoxic assay (cell loss by PI exclusion on FACS), FADD -/- I42 cells; type: cell-based; conditions: FADD -/- cells (I42) transiently transfected; TNF 12 hours; GFP+ cells
Description: Cells were stimulated with, TNF or anti-Fas antibody (CH11) for 12 hours and cell loss was analyzed on the GFP+ cells by PI exclusion on FACS.
FIG. 8F is a bar graph depicting the results of experiments in which FADD -/- I42 cells and caspase-8 -/- J3.2 cells (both are TNFR-2+) were stimulated with TNF in the presence or absence of zVAD-fmk for 16 hours.

COC1=C2C[C@@H](C)C[C@H](OC)[C@H](O)[C@@H](C)/C=C(\C)[C@H](OC(N)=O)[C@@H](OC)/C=C\C=C(/C)C(=O)NC(=CC1=O)C2=O [geldanamycin]
TNF-induced death (cell loss) ([1]; TNFR-2+ RIP -/- cells (R1.1), 10 ng/ml rhTNFα, 16 hours, or 0.5 mM GA): no effect | reduction in RIP protein level [2]: > 90% | cell viability, compound alone [3]: no effect

B1: kinase-inactive form of apoptosis signaling kinase ASK1: kinase inactive version of ASK1, expressed from transfected plasmid (protein, UniProt Q99683 1-1374, looked up, variant K709R)
Mitogen-activated protein …: MSTEADEGITFSVPPFAPSGFCTIPEGGICRRGGAAAVGEGEEHQLPPPPPGSFWNVESAAAPGIGCPAATSSSSATRGRGSSVGGGSRRTTVAYVINEASQGQLVVAESEALQSLREACETVGATLETLHFGKLDFGETTVLDRFYNADIAVVEMSDAFRQPSLFYHLGVRESFSMANNIILYCDTNSDSLQSLKEIICQKNTMCTGNYTFVPYMITPHNKVYCCDSSFMKGLTELMQPNFELLLGPICLPLVDRFIQLLKVAQASSSQYFRESILNDIRKARNLYTGKELAAELARIRQRVDNIEVLTADIVINLLLSYRDIQDYDSIVKLVETLEKLPTFDLASHHHVKFHYAFALNRRNLPGDRAKALDIMIPMVQSEGQVASDMYCLVGRIYKDMFLDSNFTDTESRDHGASWFKKAFESEPTLQSGINYAVLLLAAGHQFESSFELRKVGVKLSSLLGKKGNLEKLQSYWEVGFFLGASVLANDHMRVIQASEKLFKLKTPAWYLKSIVETILIYKHFVKLTTEQPVAKQELVDFWMDFLVEATKTDVTVVRFPVLILEPTKIYQPSYLSINNEVEEKTISIWHVLPDDKKGIHEWNFSASSVRGVSISKFEERCCFLYVLHNSDDFQIYFCTELHCKKFFEMVNTITEEKGRSTEEGDCESDLLEYDYEYDENGDRVVLGKGTYGIVYAGRDLSNQVRIAIREIPERDSRYSQPLHEEIALHKHLKHKNIVQYLGSFSENGFIKIFMEQVPGGSLSALLRSKWGPLKDNEQTIGFYTKQILEGLKYLHDNQIVHRDIKGDNVLINTYSGVLKISDFGTSKRLAGINPCTETFTGTLQYMAPEIIDKGPRGYGKAADIWSLGCTIIEMATGKPPFYELGEPQAAMFKVGMFKVHPEIPESMSAEAKAFILKCFEPDPDKRACANDLLVDEFLKVSSKKKKTQPKLSALSAGSNEYLRSISLPVPVLVEDTSSSSEYGSVSPDTELKVDPFSFKTRAKSCGERDVKGIRTLFLGIPDENFEDHSAPPSPEEKDSGFFMLRKDSERRATLHRILTEDQDKIVRNLMESLAQGAEEPKLKWEHITTLIASLREFVRSTDRKIIATTLSKLKLELDFDSHGISQVQVVLFGFQDAVNKVLRNHNIKPHWMFALDSIIRKAVQTAITILVPELRPHFSLASESDTADQEDLDVEDDHEEQPSNQTVRRPQAVIEDAVATSGVSTLSSTVSHDSQSAHRSLNVQLGRMKIETNRLLEELVRKEKELQALLHRAIEEKDQEIKHLKLKSQPIEIPELPVFHLNSSGTNTEDSELTDWLRVNGADEDTISRFLAEDYTLLDVLYYVTRDDLKCLRLRGGMLCTLWKAIIDFRNKQT
TNF-induced programmed necrosis, transfected kinase-inactive constructs [4]: not

B2: RIPn: N-terminal cleavage product of RIP (amino acids 1-324) (protein, UniProt Q13546 1-324, looked up, fragment)
chain: MQPDMSLNVIKMKSSDFLESAELDSGGFGKVSLCFHRTQGLMIMKTVYKGPNCIEHNEALLEEAKMMNRLRHSRVVKLLGVIIEEGKYSLVMEYMEKGNLMHVLKAEMSTPLSVKGRIILEIIEGMCYLHGKGVIHKDLKPENILVDNDFHIKIADLGLASFKMWSKLNNEEHNELREVDGTAKKNGGTLYYMAPEHLNDVNAKPTEKSDVYSFAVVLWAIFANKEPYENAICEQQLIMCIKSGNRPDVDDITEYCPREIISLMKLCWEANPEARPTFPGIEEKFRPFYLSQLEESVEEDVKSLKKEYSNENAVVKRMQSLQLD
restoration of response to TNF (TNF killing) by transfected RIP constructs [1]: failed to restore

B3: kinase-inactive RIP: kinase inactive version of RIP (K45A mutation), expressed from transfected plasmid (protein, UniProt Q13546 1-671, looked up, variant K45A)
Receptor-interacting …: MQPDMSLNVIKMKSSDFLESAELDSGGFGKVSLCFHRTQGLMIMATVYKGPNCIEHNEALLEEAKMMNRLRHSRVVKLLGVIIEEGKYSLVMEYMEKGNLMHVLKAEMSTPLSVKGRIILEIIEGMCYLHGKGVIHKDLKPENILVDNDFHIKIADLGLASFKMWSKLNNEEHNELREVDGTAKKNGGTLYYMAPEHLNDVNAKPTEKSDVYSFAVVLWAIFANKEPYENAICEQQLIMCIKSGNRPDVDDITEYCPREIISLMKLCWEANPEARPTFPGIEEKFRPFYLSQLEESVEEDVKSLKKEYSNENAVVKRMQSLQLDCVAVPSSRSNSATEQPGSLHSSQGLGMGPVEESWFAPSLEHPQEENEPSLQSKLQDEANYHLYGSRMDRQTKQQPRQNVAYNREEERRRRVSHDPFAQQRPYENFQNTEGKGTAYSSAASHGNAVHQPSGLTSQPQVLYQNNGLYSSHGFGTRPLDPGTAGPRVWYRPIPSHMPSLHNIPVPETNYLGNTPTMPFSSLPPTDESIKYTIYNSTGIQIGAYNYMEIGGTSSSLLDSTNTNFKEEPAAKYQAIFDNTTSLTDKHLDPIRENLGKHWKNCARKLGFTQSQIDEIDHDYERDGLKEKVYQMLQKWVMREGIKGATVGKLAQALHQCSRIDLLSSLIYVSQN
restoration of response to TNF (TNF killing) by transfected RIP constructs [1]: restored | TNF-induced programmed necrosis, transfected kinase-inactive constructs [4]: strongly suppressed

B4: RIP-D324A: non-cleavable mutant of RIP (protein, UniProt Q13546 1-671, looked up, variant D324A)
Receptor-interacting …: B3 Receptor-interacting … with A45K, D324A
restoration of response to TNF (TNF killing) by transfected RIP constructs [1]: potently restored

B5: wild-type RIP: wild-type receptor-interacting protein expressed in RIP -/- cells (protein, UniProt Q13546 1-671, looked up)
Receptor-interacting …: B3 Receptor-interacting … with A45K
restoration of response to TNF (TNF killing) by transfected RIP constructs [1]: potently restored

B6: p35: known apoptosis inhibitor, transfected plasmid (protein, UniProt P08160 1-299, looked up)
Early 35 kDa protein: MCVIFPVEIDVSQTIIRDCQVDKQTRELVYINKIMNTQLTKPVLMMFNISGPIRSVTRKNNNLRDRIKSKVDEQFDQLERDYSDQMDGFHDSIKYFKDEHYSVSCQNGSVLKSKFAKILKSHDYTDKKSIEAYEKYCLPKLVDERNDYYVAVCVLKPGFENGSNQVLSFEYNPIGNKVIVPFAHEINDTGLYEYDVVAYVDSVQFDGEQFEEFVQSLILPSSFKNSEKVLYYNEASKNKSMIYKALEFTTESSWGKSEKYNWKIFCNGFIYDKKSKVLYVKLHNVTSALNKNVILNTIK
TNF-induced programmed necrosis, transfected apoptosis inhibitors ([4]; caspase 8 -/- J3.2 cells transfected with plasmids, 12 hours stimulation with TNF): failed to confer protection

B7: RIPc: C-terminal fragment of RIP (amino acids 325-671) (protein, UniProt Q13546 325-671, looked up, fragment)
chain: CVAVPSSRSNSATEQPGSLHSSQGLGMGPVEESWFAPSLEHPQEENEPSLQSKLQDEANYHLYGSRMDRQTKQQPRQNVAYNREEERRRRVSHDPFAQQRPYENFQNTEGKGTAYSSAASHGNAVHQPSGLTSQPQVLYQNNGLYSSHGFGTRPLDPGTAGPRVWYRPIPSHMPSLHNIPVPETNYLGNTPTMPFSSLPPTDESIKYTIYNSTGIQIGAYNYMEIGGTSSSLLDSTNTNFKEEPAAKYQAIFDNTTSLTDKHLDPIRENLGKHWKNCARKLGFTQSQIDEIDHDYERDGLKEKVYQMLQKWVMREGIKGATVGKLAQALHQCSRIDLLSSLIYVSQN
restoration of response to TNF (TNF killing) by transfected RIP constructs [1]: restored

B8: full-length FADD: full-length FADD transiently transfected into FADD -/- cells (protein, UniProt Q13158 1-208, looked up)
chain: MDPFLVLLHSVSSSLSSSELTELKFLCLGRVGKRKLERVQSGLDLFSMLLEQNDLEPGHTELLRELLASLRRHDLLRRVDDFEAGAAAGAAPGEEDLCAAFNVICDNVGKDWRRLARQLKVSDTKIDSIEDRYPRNLTERVRESLRIWKNTEKENATVAHLVGALRSCQMNLVADLVQEVQQARDLQNRSGAMSPMSWNSDASTSEAS
modifications: full-length
notes: full-length FADD transiently transfected into FADD -/- cells
TNF-induced programmed necrosis after reconstitution of FADD [5]: suppression
